US20080317769A1, “Vaccine Composition Comprising Alpha-Galactosylceramide as an Adjuvant For Intranasal Administration” (priority 2005, published 2008)

Test system: EG7 tumor cells
Test: EG7 tumor challenge after intranasal immunization with OVA and αGalCer
Assay type: in vivo
Conditions: C57BL/6 mice
Description: To confirm whether αGalCer could be used as a nasal vaccine adjuvant inducing anticancer activity, C57BL/6 mice were immunized with 100 μg of OVA alone or together with αGalCer (0.125, 0.5, 2.0 μg) by the intranasal administration three times at one-week intervals. Two weeks after the final immunization, 3×10^6 EG7 tumor cells were subcutaneously inoculated in the left flank of the immunized mice. On the 14th day of the inoculation, the mice were sacrificed and the palpable tumors were weighed.

B1: OVA: model antigen given intranasally at 100 μg alone or together with αGalCer (protein, UniProt P01012 2-386, looked up)
Ovalbumin: GSIGAASMEFCFDVFKELKVHHANENIFYCPIAIMSALAMVYLGAKDSTRTQINKVVRFDKLPGFGDSIEAQCGTSVNVHSSLRDILNQITKPNDVYSFSLASRLYAEERYPILPEYLQCVKELYRGGLEPINFQTAADQARELINSWVESQTNGIIRNVLQPSSVDSQTAMVLVNAIVFKGLWEKAFKDEDTQAMPFRVTEQESKPVQMMYQIGLFRVASMASEKMKILELPFASGTMSMLVLLPDEVSGLEQLESIINFEKLTEWTSSNVMEERKIKVYLPRMKMEEKYNLTSVLMAMGITDVFSSSANLSGISSAESLKISQAVHAAHAEINEAGREVVGSAEAGVDAASVSEEFRADHPFLFCIKHIATNAVLFFGRCVSP
- mice with tumor masses (100 μg OVA alone intranasal, 3×10^6 EG7 cells s.c., day 14): all mice
- tumor weight compared with vehicle alone (OVA alone through the nasal cavity, p<0.05): significantly heavy
